Earlier results as cited in publication PMC2862573.

Biological target: CCR2 loop-2 peptide (Homo sapiens)

- Kd: 22 µM
Substance: MCP-1 (from UniProt P13500)
